This is an account of results in patent US20220340642A1 (Kyowa Kirin, published 2022).

Substitutions are numbered along the chain they refer to. Numbers in names are those of the source.

T1: membrane-bound human FasL (Met and FLAG tag at the N-terminus) on CHO-K1 cells (human, UniProt P48023 2-281)
T1 construct: also called FasL/CHO
T1 sequence: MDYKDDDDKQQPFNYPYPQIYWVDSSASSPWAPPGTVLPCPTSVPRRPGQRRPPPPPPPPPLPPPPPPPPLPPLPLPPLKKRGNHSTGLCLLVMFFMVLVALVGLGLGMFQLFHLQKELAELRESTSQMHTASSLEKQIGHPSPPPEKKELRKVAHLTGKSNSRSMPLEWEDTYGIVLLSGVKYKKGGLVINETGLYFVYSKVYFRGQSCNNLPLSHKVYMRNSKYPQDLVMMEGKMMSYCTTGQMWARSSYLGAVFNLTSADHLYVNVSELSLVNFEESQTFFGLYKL

T2: primary soluble FasL produced from human T cells stimulated for AICD (human, UniProt P48023 130-281, limits assumed)
T2 construct: also called soluble FasL derived from human T cells
T2 sequence (looked up): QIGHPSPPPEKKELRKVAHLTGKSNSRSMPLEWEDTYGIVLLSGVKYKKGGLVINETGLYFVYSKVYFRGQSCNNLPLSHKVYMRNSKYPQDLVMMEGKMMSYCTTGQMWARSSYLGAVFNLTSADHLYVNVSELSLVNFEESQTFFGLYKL

T3: primary soluble TL1A produced from an activated human PBMC (human, UniProt O95150 72-251, limits assumed)
T3 sequence (looked up): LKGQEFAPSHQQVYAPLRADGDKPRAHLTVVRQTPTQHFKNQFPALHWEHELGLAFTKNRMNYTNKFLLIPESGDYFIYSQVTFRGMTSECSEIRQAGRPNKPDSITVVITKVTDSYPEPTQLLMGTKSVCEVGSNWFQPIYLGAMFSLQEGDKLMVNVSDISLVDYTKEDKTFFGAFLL

B1: chimera A-E57K_R58D-Fc (Eg1S LALAGANA) (Fc fusion)
chain: ETFPPKYLHYDEETSHQLLCDKCPPGTYLKQHCTAKWKTVCAPCPPRHYTQFWNYLKDCRYCNVLCGEREEEARACHATHNRACRCRTGFFAHAGFCLEHASCPPGAGVIAPGTPSQNTQCQPCPDGFFSNETSSKAPCRKHTNCSVFGLLLTQKGNATHDNICSGNSESTQKEPKSSDKTHTCPPCPAPEAAGAPSVFLFPPKPKDTLMISRTPEVTCVVVDVSHEDPEVKFNWYVDGVEVHNAKTKPREEQYNSTYRVVSVLTVLHQDWLNGKEYKCKVSNKALPAPIEKTISKAKGQPREPQVYTLPPSRDELTKNQVSLTCLVKGFYPSDIAVEWESNGQPENNYKTTPPVLDSDGSFFLYSKLTVDKSRWQQGNVFSCSVMHEALHAHYTQKSLSLSPGK
B2: chimera A-E57K-Fc (Eg1S LALAGANA) (Fc fusion)
chain: B1 chain with D58R
B3: chimera A-E57K-Fc (Eg1S YTE) (Fc fusion)
chain: B1 chain with D58R, A192L, A193L, A195G, M210Y, S212T, T214E, A392N
B4: chimera A-E57V-Fc (Eg1S LALAGANA) (Fc fusion)
chain: B1 chain with K57V, D58R
B5: chimera A-E57R-Fc (Eg1S YTE) (Fc fusion)
chain: B1 chain with K57R, D58R, A192L, A193L, A195G, M210Y, S212T, T214E, A392N
B6: chimera A-E57V-Fc (Eg1S YTE) (Fc fusion)
chain: B1 chain with K57V, D58R, A192L, A193L, A195G, M210Y, S212T, T214E, A392N
B7: chimera A-E57R-Fc (Eg1S LALAGANA) (Fc fusion)
chain: B1 chain with K57R, D58R
B8: chimera A-E57K_R58E-Fc (Eg1S LALAGANA) (Fc fusion)
chain: B1 chain with D58E
B9: chimera A-E57K_R58D-Fc (Eg1S YTE) (Fc fusion)
chain: B1 chain with A192L, A193L, A195G, M210Y, S212T, T214E, A392N
notes: also called 45-10-Fc (Eg1S YTE)
B10: chimera A-E57K_R58E-Fc (Eg1S YTE) (Fc fusion)
chain: B1 chain with D58E, A192L, A193L, A195G, M210Y, S212T, T214E, A392N
notes: also called 45-18-Fc (Eg1S YTE)
B11: chimera A-Fc (Eg1S LALAGANA) (Fc fusion)
chain: B1 chain with K57E, D58R
B12: chimera A-Fc (Eg1S YTE) (Fc fusion)
chain: B1 chain with K57E, D58R, A192L, A193L, A195G, M210Y, S212T, T214E, A392N

primary soluble LIGHT produced from activated human T cells, sequence (O43557 83-240 limits assumed): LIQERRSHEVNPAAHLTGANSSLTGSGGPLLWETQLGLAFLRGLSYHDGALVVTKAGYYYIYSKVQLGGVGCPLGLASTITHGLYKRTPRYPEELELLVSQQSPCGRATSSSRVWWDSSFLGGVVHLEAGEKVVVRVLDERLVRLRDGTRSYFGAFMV

The first assay addresses T1, membrane-bound human FasL (Met and FLAG …). Put plainly: flow cytometry on expressing cells. Summed up:
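Binding was measured by flow cytometry on HEK293 cells forced to express membrane-bound LIGHT and on cell lines expressing N-terminally Met/FLAG-tagged TL1A or FasL from a CMV-promoter pClpuro vector. Cells at 1×10⁵ cells/well received 1 or 10 μg/mL protein on ice for 1 hour. After washing, cells were stained on ice for 1 hour with LIVE/DEAD Fixable Aqua and R-phycoerythrin goat F(ab′)₂ anti-human IgG (10 ng/mL, 0.1 or 1 μg/mL). Fluorescence was read on a FACS Fortessa.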
(In general: A flow cytometer gives signals particle by particle.)
For the molecule B1, the binding result is “binds”.
Regarding B2, the binding result is “binds”.
For the molecule B3, the binding result was “binds”.
Still for that read-out and setting: with B4 the entry was “binds”.
Take B5: the binding result is “binds”.
The same measure, in the same setting: with B6 the entry was “binds”; with B7, “binds”; with B8, “binds”.
For B9, the binding result is “binds”.
B10: the binding result is on record as “binds”.

A further assay concerns the target T2, primary soluble FasL produced from …. Put plainly: sandwich ELISA, binder captured. Here is the method:
(§1) Then, 10 μg/mL of anti-human IgG antibodies (American Qualex International, Inc.) were immobilized to a 96-well immunoplate (Thermo Scientific), and blocking was performed with 2% Block Ace (DS Pharma Biomedical Co., Ltd.), and then 2 μg/mL of chimera A-Fc, E57K-Fc and 45-18-Fc (in all of which Fc is Eg1S YTE or Eg1S […]) were captured. The culture supernatant of human T cells stimulated for LIGHT production was concentrated 6-fold using Amicon Ultra-15 having a molecular weight cutoff of 3 kDa (Merck Millipore) prerinsed with sterile water. After the plate was washed, the 6-fold concentrated culture supernatant was reacted. As a standard of LIGHT, the soluble recombinant FLAG-LIGHT trimer produced in Example 13 was used. After the plate was washed, a biotinylated anti-LIGHT antibody (R&D Systems, Inc.) was reacted. After the plate was washed, streptavidin-HRP (PIERCE) was reacted. After washing again, a TMB solution (Dako) was added to develop a color. Then, a 2 N sulfuric acid solution was used to stop the chromogenic reaction, and the absorbance at 450 nm (reference wavelength of 570 nm) was measured.
(§2) Sandwich ELISA was performed by the same method as in (1). On a 96-well immunoplate, chimera A-Fc, E57K-Fc and 45-18-Fc (in all of which Fc is Eg1S YTE or Eg1S […]) or the anti-human TL1A antibody produced in Example 16 was captured. Then, with the plate, a 4-fold concentrated culture supernatant of PBMCs stimulated for TL1A production or as a standard, the soluble recombinant His6-TL1A trimer produced in Example 13 was reacted, followed by detection with a biotinylated anti-TL1A antibody (R&D Systems, Inc.).
(§3) Sandwich ELISA was performed by the same method as in (1). On a 96-well immunoplate, chimera A-Fc, E57K-Fc and 45-18-Fc (each including Eg1S YTE or Eg1S […] as an Fc) or Fas-Fc (R&D Systems, Inc.) was captured, and then a 6-fold concentrated culture supernatant of human T cells stimulated for AICD or as a standard, Human His6 Fas Ligand/TNFSF6 (Cell Signaling Technology, Inc.) was reacted, followed by detection with a biotinylated anti-FasL antibody included with Human Fas Ligand ELISA Kit (Abcam plc).
(In an ELISA, binding on a coated surface is turned into a signal by an enzyme label.)
Turning to B11, the binding result is given as “binds”.
Still for that read-out and setting: to B2 belongs “binds”.
Same read-out and setting: to B3 belongs “binds”; to B8, “binds”.
For the molecule B12, the binding result is reported as “binds”.
In the case of B10, the binding result is “binds”.

A further assay has as its target T3, primary soluble TL1A produced from an …. The assay is described as follows: sandwich ELISA, binder captured. Here is the method: as §1, §2, §3
As for B11, the binding result is on record as “binds”.
With B2, the binding result is on record as “binds”.
With B3, the binding result is reported as “binds”.
As for B8, the binding result is recorded as “binds”.
The same measure, in the same setting: to B12 belongs “binds”; to B10, “binds”.

The next assay has as its target primary soluble LIGHT produced from activated human T cells (human, UniProt O43557 83-240, limits assumed). The assay is described as follows: sandwich ELISA, binder captured. Here is the method: as §1, §2, §3
On to B11, for which the binding result is reported as “binds”.
Consider B2, for which the binding result is given as “binds”.
For the molecule B3, the binding result is “binds”.
On the same count and under the same terms, to B8 belongs “binds”; to B12, “binds”; to B10, “binds”.
